Experimental data as given in article PMC3245936 (Nucleic Acids Research, 2011).

T1: full-length SpPot1 (Schizosaccharomyces pombe Pot1) (S. pombe, UniProt O13988 1-555)
T1 sequence (looked up): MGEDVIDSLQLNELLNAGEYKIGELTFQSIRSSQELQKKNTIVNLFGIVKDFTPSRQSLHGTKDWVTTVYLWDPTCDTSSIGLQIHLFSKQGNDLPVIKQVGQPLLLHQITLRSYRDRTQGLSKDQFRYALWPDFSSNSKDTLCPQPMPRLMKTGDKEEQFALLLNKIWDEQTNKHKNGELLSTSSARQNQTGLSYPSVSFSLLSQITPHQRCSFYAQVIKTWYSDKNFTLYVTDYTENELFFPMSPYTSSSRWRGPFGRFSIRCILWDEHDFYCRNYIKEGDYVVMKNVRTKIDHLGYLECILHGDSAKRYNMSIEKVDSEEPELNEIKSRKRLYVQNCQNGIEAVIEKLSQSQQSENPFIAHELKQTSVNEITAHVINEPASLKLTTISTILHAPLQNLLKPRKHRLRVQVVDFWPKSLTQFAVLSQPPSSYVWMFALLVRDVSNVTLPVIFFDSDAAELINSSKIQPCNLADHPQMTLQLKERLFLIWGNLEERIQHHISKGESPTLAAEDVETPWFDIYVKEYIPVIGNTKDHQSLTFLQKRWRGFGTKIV

T2: SpPot1 (Schizosaccharomyces pombe, UniProt O13988 1-555)
T2 sequence: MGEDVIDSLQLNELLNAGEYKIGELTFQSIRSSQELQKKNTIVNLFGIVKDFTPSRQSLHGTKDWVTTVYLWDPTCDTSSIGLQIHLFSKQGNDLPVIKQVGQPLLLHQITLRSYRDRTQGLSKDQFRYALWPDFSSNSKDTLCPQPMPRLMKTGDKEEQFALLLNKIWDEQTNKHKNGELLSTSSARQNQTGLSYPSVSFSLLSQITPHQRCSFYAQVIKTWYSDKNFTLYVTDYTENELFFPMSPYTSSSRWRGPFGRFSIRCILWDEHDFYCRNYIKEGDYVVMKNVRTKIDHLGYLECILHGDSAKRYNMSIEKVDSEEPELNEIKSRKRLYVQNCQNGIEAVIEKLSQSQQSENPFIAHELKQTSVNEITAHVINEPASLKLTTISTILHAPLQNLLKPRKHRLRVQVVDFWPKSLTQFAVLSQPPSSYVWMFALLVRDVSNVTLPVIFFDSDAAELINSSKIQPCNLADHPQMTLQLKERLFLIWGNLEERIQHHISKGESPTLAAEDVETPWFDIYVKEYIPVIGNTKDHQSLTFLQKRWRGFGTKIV

T3: SpPot1;Tpz1-1-234 (Schizosaccharomyces …, UniProt O13988;O14246 1-555;1-234, |)
T3 sequence 1: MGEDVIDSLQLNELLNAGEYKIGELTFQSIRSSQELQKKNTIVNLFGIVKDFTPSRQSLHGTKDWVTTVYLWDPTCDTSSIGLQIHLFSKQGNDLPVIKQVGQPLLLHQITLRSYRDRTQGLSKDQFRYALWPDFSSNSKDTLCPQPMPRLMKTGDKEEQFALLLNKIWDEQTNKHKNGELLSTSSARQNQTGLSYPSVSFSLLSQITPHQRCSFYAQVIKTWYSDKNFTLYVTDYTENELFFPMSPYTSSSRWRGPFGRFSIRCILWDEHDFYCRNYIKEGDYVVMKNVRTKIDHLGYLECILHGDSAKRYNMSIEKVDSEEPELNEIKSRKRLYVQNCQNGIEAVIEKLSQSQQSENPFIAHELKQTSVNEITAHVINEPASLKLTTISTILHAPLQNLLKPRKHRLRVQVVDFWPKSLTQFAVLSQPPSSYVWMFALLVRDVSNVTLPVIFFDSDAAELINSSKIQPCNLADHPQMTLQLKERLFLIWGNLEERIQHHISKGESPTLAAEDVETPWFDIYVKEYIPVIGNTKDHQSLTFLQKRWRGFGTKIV
T3 sequence 2: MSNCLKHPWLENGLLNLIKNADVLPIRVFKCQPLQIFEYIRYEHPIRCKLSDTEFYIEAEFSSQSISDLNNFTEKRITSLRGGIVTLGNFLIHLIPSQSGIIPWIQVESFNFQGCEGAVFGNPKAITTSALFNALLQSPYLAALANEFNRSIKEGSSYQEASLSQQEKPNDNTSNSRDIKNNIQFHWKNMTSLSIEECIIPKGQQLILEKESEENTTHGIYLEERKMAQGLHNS


Legend:
[1] = target: T1, full-length SpPot1 (Schizosaccharomyces …); test: native gel or EMSA
[2] = target: T2, SpPot1; test: size-exclusion chromatography
[3] = target: T2, SpPot1; test: filter binding
[4] = target: T3, SpPot1;Tpz1-1-234; test: filter binding

binding result [1] | Binder | binding result [2] | Kd [3] [nM] | Kd [4] [nM]
binds | Tpz1-1–234 (domain or fragment, S. pombe, UniProt O14246 1-234, looked up) MSNCLKHPWLENGLLNLIKNADVLPIRVFKCQPLQIFEYIRYEHPIRCKLSDTEFYIEAEFSSQSISDLNNFTEKRITSLRGGIVTLGNFLIHLIPSQSGIIPWIQVESFNFQGCEGAVFGNPKAITTSALFNALLQSPYLAALANEFNRSIKEGSSYQEASLSQQEKPNDNTSNSRDIKNNIQFHWKNMTSLSIEECIIPKGQQLILEKESEENTTHGIYLEERKMAQGLHNS | – | – | –
– | GGTTAC (ssDNA) | binds | – | –
– | GGTTACGGTTAC (mixed, ribonucleotides at 2 and 8) [r2r8] | – | 3.2 ± 0.5 | 0.19 ± 0.03
– | GGTTACGGTTAC (mixed, ribonucleotides at 1 and 7) [r1r7] | – | 5.1 ± 0.01 | 0.31 ± 0.02
– | GGTTACAGGTTAC (ssDNA) [d12dA] | – | 4.3 ± 0.6 | –
– | GGTTACGGTTAC (mixed, ribonucleotides at 5 and 11) [r5r11] | – | 3.34 ± 0.4 | 0.31 ± 0.05
– | GGTTACAGGGGTTAC (ssDNA) [d12dAdGdG] | – | 4.9 ± 0.7 | –
– | GGTTACGGTTAC (ssDNA) [d12] | – | 5 ± 1.3 | 0.22 ± 0.03
– | GGTTACGGTTAC (mixed, ribonucleotides at 6 and 12) [r6r12] | – | 3.2 ± 0.6 | 0.3 ± 0.05
– | GGTTACAGGTTAC (mixed, ribonucleotide (rA) at 7) [d12rA] | – | 3.4 ± 0.3 | –
– | GGUUACGGUUAC (mixed, ribonucleotides (rU) at 3, 4, 9 and 10) [r3r4r9r10] | – | ~238 | –
– | GGTTACAGGGGTTAC (mixed, ribonucleotides (rArGrG) at 7-9) [d12rArGrG] | – | 4 ± 0.5 | –
– | GGUUACGGUUAC (ssRNA) [r12] | – | ~324 | ~1000
